The nature of series [1]: Plasma protein binding (ultrafiltration), dog. In kind it is in vitro ADME. Conditions: 37 °C. The procedure: Plasma ultrafiltration was used for determination of free and protein bound fractions of EC2629 and EC2491. Samples were extracted and analyzed using fit-for-purpose bioanalytical methods. Briefly, 500 nM EC2629 or EC2491 was spiked into plasma maintained at 37 °C prior to plasma ultrafiltration. Plasma spiked with 500 nM EC2629 or EC2491 was allowed to equilibrate at 37 °C for 30 min prior to processing. Next, 50 μL of plasma was transferred to a clean 1.2 mL plate stored at 2–8 °C for further processing. The remaining plasma sample volumes were transferred to 30 Kd MWCO PES filter to generate plasma ultrafiltrate by centrifugation at 10,000×g for 20 min. After which, 50 μL of each plasma ultrafiltrate was transferred to separate wells in a clean 1.2 mL plate. To all spiked plasma samples, 50 μL of blank plasma ultrafiltrate was added. 50 μL of blank plasma was added to all experimental ultrafiltrate samples. These blank matrix additions normalized the matrix effects for protein binding determination. Samples were then extracted using protein precipitation with a 3:1 ratio of acetonitrile after addition of internal standard. The supernatant transferred to a new plate, evaporated, and reconstituted prior to LC–MS/MS analysis.

Series [2] deals with KB tumor xenografts. Description: KB tumor xenograft in nu/nu mice. The settings on record: EC2629 0.3 µmol/kg iv SIW x 2 weeks. The format is in vivo. The method, then: Four- to eight-week-old female nu/nu mice and rats (Harlan Sprague Dawley, Inc.), were maintained on a standard 12-h light–dark cycle and fed ad libitum with a low-folate chow (Harlan Teklad diet #TD.01013, Madison, WI) for the duration of dosing and 1 week post dosing schedule. Mice and rats were then switched to Teklad Global 18% Rodent diet (Harlan Teklad diet #2018S) during the monitoring phase of the study. Parental KB, KB-CR2000 or KB-PR10 cells (1 × 10^6/100 µL per nu/nu mouse and 5 × 10^6/200 µL per nu/nu rat) were injected into the subcutis of the dorsal medial area. Mice were divided into groups of 5 and rats in groups of 3–4, and freshly prepared test articles were injected through the lateral tail vein under sterile conditions in a volume of 200 μL/20 g of PBS. In mice, intravenous treatments typically initiated on day 7 PTI when KB tumors were approximately 111–168 mm^3 in volume, on day 5 PTI when the KB-PR tumors were about 205–243 mm^3, and on day 6 PTI when the KB-CR tumors were around 98 to 168 mm^3. Treatments in rats were started on day 10 PTI when KB tumors were approximately 412–704 mm^3 in volume.
Animals in the control groups received no treatment. Growth of each subcutaneous tumor was followed by measuring the tumor 3 times per week during treatment and twice per week thereafter, until a maximum volume of 1,500 mm^3 for mice and 15,000 mm^3 for rats were reached. Tumors were measured in two perpendicular directions using Vernier calipers, and their volumes were calculated as V = 0.5 × L × W^2, where L = measurement of longest axis in mm and W = measurement of axis perpendicular to L in mm[16]. As a general measure of gross toxicity, changes in body weights were determined on the same schedule as tumor volume measurements. Survival of animals was monitored daily. Animals that were moribund (or unable to reach food or water) were euthanized by CO2 asphyxiation. Individual tumor response endpoints were reported in terms of tumor volume change. A partial response (PR) was defined as volume regression > 50% but with measurable tumor (> 2 mm^3) remaining at all times. Complete response (CR) was defined as a disappearance of measurable tumor mass (< 2 mm^3) at some point within 90 days after tumor implantation. Cures were defined as CRs without tumor regrowth within the 90-day study time frame.

Series [3] can be described thus: Plasma stability, dog. In kind it is in vitro ADME. The settings on record: 500 nM, 37 °C, 2 h. The method, then:
Whole blood and plasma stability were determined for EC2629 and EC2491 at a concentration of 500 nM. Samples were extracted and analyzed using fit-for-purpose bioanalytical methods. EC2629 or EC2491 was spiked into 1 mL whole blood or plasma maintained at 37 °C for 30 min prior to use . Fifty µl aliquots were then removed at defined timepoints and stored in a 1.2 mL extraction plate prior to analysis. Samples were then extracted using protein precipitation with a 3:1 ratio of acetonitrile after addition of internal standard. The supernatant was then transferred to a new plate, evaporated, and reconstituted prior to LC–MS/MS analysis.

Molecules are shown by their SMILES.

In series [1], `C=C1C[C@H]2C=Nc3cc(OCCCCCOc4cc(N)c(C(=O)N5CC(=C)C[C@H]5C5OCCN5C(=O)OCC(C)(C)SSCCC(=O)NCCNC(=O)CCOCCOCCOCCOCCNC(=O)CCN5C(=O)CC(SC[C@H](NC(=O)[C@H](CC(=O)O)NC(=O)[C@H](CC(=O)O)NC(=O)[C@H](CCCNC(=N)N)NC(=O)[C@H](CC(=O)O)NC(=O)CC[C@H](NC(=O)c6ccc(NCc7cnc8nc(N)[nH]c(=O)c8n7)cc6)C(=O)O)C(=O)O)C5=O)cc4OC)c(OC)cc3C(=O)N2C1` (stereo partly drawn) [EC2629] showed a fraction unbound at 30 min, 500 nM of 0.055. Moreover, in series [2], the body weight change result is recorded as “did not lose any significant weight”. In addition, the plasma stability result in series [3] is reported as “stable”.

(Values after paper PMC7391724 (Scientific Reports, 2020).)
